Measurements: patent US20100330076A1 (RESEARCH DEVELOPMENT FOUNDATION, published 2010)

What follows are binders tested against T1, extracellular domain of recombinant glycosylated FcγRIa/CD64 (R&D Systems) labeled with FITC (human, UniProt P12314 16-292, FITC-labeled; glycosylated) (assay: flow cytometry of E. coli spheroplasts labeled with FcγRIa-FITC (summary in Example 3)).
T1 construct: extracellular domain; it is not restated for the bought reagent; also called FcγRIa-FITC; FcγRI-FITC
T1 sequence (P12314 16-292): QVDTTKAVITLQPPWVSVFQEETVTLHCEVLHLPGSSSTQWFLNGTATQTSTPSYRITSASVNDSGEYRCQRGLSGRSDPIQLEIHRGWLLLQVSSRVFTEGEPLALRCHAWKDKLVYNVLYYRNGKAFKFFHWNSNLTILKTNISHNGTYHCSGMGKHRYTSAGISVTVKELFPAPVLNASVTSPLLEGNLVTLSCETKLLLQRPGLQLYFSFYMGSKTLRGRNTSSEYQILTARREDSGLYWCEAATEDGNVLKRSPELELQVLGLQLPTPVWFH

binding result | Binder
binds | Fc602 (other, Aglycosylated Fc fragment (E. coli, pPelBFLAG), assayed on spheroplasts; not shown: C-terminal FLAG tag from pPelBFLAG) DKTHTCPPCPAPELLGGPSVFLFPPKPKDTLMISRTPEVTCVVVDVSHEDPEVKFNWYVDGVEVHNAKTKPREEQYDSTYRVVSVLTVLHQDWLDGKEYKCKVSNKALPAPIEKTISKANGQPREPQVYTLPPSRDELTKNQVSLTCLVKGFYPSDIAVEWVSNGQPENNYKTTPPVLDSDGSFFLYSKLTVDKSRWQQGNVFSCSVIHEALHNHYTQKSLSLSPGK

What follows are binders tested against T1, extracellular domain of recombinant … (assay: flow cytometry of E. coli spheroplasts expressing the Fc fragment, labeled with FcγRIa-FITC).

Binder | binding result
Fc611 (other, Aglycosylated Fc fragment (E. coli, pPelBFLAG), assayed on spheroplasts; not shown: C-terminal FLAG tag from pPelBFLAG) DKTHTCPPCPAPELLGGPSVFLFPPKPKDTLMISRTPEVTCVVVDVSHEDPEVKFNWYVDGVEVHNAKTKPREEQYNSTYRVVSVLTVLHQDWLNGKEYKCKVSNKALPAPIEKTISKAKVQPREPQVYTLPPSRDELTKNQVSLTCLVKGFYPSDIAVEWVSNGQPENNYKTTPPVLDSDGSFFLYSKLTVDKSRWQQGNVFSCSVIHEALHNHYTQKSLSLSPGK | binds
Fc619 (other, Aglycosylated Fc fragment (E. coli, pPelBFLAG), assayed on spheroplasts; not shown: C-terminal FLAG tag from pPelBFLAG) DKTHTCPPCPAPELLGGPSVFLFPPKPKDTLMISRTPEVTCVVVDMSHEDPEVKFNWYVDGVEVHNAKTKPREEQYNSTYRVVSVLTVLHQDWLNGKEYKCKVSNKALPAPIEKTISKAKGQPREPQVYTLPPSRDELTKNQVSLTCLVKGFYPSDIAVEWVSNGQPENNYKTTPPVLDSDGSFFLYSKLTVDKSRWQQGNVFSCSVIHEALHNHYTQKSLSLSPGK | binds
Fc704 (other, Aglycosylated Fc fragment (E. coli, pPelBFLAG), assayed on spheroplasts; not shown: C-terminal FLAG tag from pPelBFLAG) DKTHTCPPCPAPELLGGPSVFLFPPKPKDTLMISRTPEVTCVVVDVSHEDPEVKFNWYVDGVEVHNAKTKPREEQYNSTYRVVSVLTVLHQDWLNGKEYKCKVSNKAWPEVYEKTISKAKGQPREPQVYTLPPSRDELTKNQVSLTCLVKGFYPSDIAVEWVSNGQPENNYKTTPPVLDSDGSFFLYSKLTVDKSRWQQGNVFSCTVIHEALHNHYTQKSLSLSPGK | binds
Fc616 (other, Aglycosylated Fc fragment (E. coli, pPelBFLAG), assayed on spheroplasts; not shown: C-terminal FLAG tag from pPelBFLAG) DKTHTCPPCPAPELLGGPSVFLFPPKPKDTLMISRTPEVTCVVVDVSHEDPEVKFNWYVDGVEVHNAKTKPREEQYNSTCRVVSVLTVLHQDWLNGKEYKCKVSNKALPAPIEKTISKAKVQPREPQVYTLPPSRDELTKNQVSLTCLVKGFYPSDIAVEWVSNGQPENNYKTTPPVLDSDGSFFLYSKLTVDKSRWQQGNVFSCSVIHEALHNHYTQKSLSLSPGK | binds
Fc703 (other, Aglycosylated Fc fragment (E. coli, pPelBFLAG), assayed on spheroplasts; not shown: C-terminal FLAG tag from pPelBFLAG) DKTHTCPPCPAPELLGGPSVFLFPPKPKDTLMISRTPEVTCVVVDVSHEDPEVKFNWYVDGVEVHNAKTKPREEQYNSTYRVVSVLTVLHQDWLNGKEYKCKVSNKAWPEEYEKTISKAKGQPREPQVYTLPPSRDELTKNQVSLTCLVKGFYPSDIAVEWVSNGQPENNYKTTPPVLDSDGSFFLYSKLTVDKSRWQQGNVFSCSVIHEALHNHYTQKSLSLSPGK | binds
Fc701 (other, Aglycosylated Fc fragment (E. coli, pPelBFLAG), assayed on spheroplasts; also called IgG1-Fc701; not shown: C-terminal FLAG tag from pPelBFLAG) DKTHTCPPCPAPELLGGPSVFLFPPKPKDTLMISRTPEVTCVVVDVSHEDPEVKFNWYVDGVEVHNAKTKPREERYNSTYRVVSVLTVLHQDWLNGKEYKCKVSNKAWPVAYEKTISKAKGQPREPQVYTLPPSRDELTKNQVSLTCLVKGFYPSDIAVEWVSNGQPENNYKTTPPVLDSDGSFFLYSKLTVDKSRWQQGNVFSCSVIHEALHNHYTQKSLSLSPGK | binds
Fc706 (other, Aglycosylated Fc fragment (E. coli, pPelBFLAG), assayed on spheroplasts; not shown: C-terminal FLAG tag from pPelBFLAG) DKTHTCPPCPAPELLGGPSVFLFPPKPKDTLMISRTPEVTCVVVDVSHEDPEVKFNWYVDGVEVHNAKTKPREEQYNSTYRVVSVLTVLHQDWLNGKEYKCKVSNKAWPIEYEKTISKAKGQPREPQVYTLPPSRDELTKNQVSLTCLVKGFYPSDIAVEWVSNGQPENNYKTTPPVLDSDGSFFLYSKLTVDKSRWQQGNVFSCSVIHEALHNHYTQKSLSLSPGK | binds
Fc705 (other, Aglycosylated Fc fragment (E. coli, pPelBFLAG), assayed on spheroplasts; not shown: C-terminal FLAG tag from pPelBFLAG) DKTHTCPPCPAPELLGGPSVFLFPPKPKDTLMISRTPEVTCVVVDVSHEDPEVKFNWYVDGVEVHNAKTKPREEQYNSTYRVVSVLTVLHQDWLNGKEYKCKVSNKAWPEVYEKTISKAKGQPREPQVYTLPPSRDELTKNQVSLTCLVKGFYPSDIAVEWVSNGQPENNYKTTPPVLDSDGSFFLYSKLTVDKSRWQQGNVFSCSVIHEALHNHYTQKSLSLSPGK | binds
Fc615 (other, Aglycosylated Fc fragment (E. coli, pPelBFLAG), assayed on spheroplasts; not shown: C-terminal FLAG tag from pPelBFLAG) DKTHTCPPCPAPELLGGPSVFLFPPKPKDTLMISRTPEVTCVVVDVSHEDPEVKFNWYVDGVEVHNAKTKPREEQYNSTYRVVSVLTVLHQDWLNGKEYKCKVSSKALPAPIEKTISKAKVQPREPQVYTLPPSRDELTKNQVSLTCLVKGFYPSDIAVEWVSNGQPENNYKTTPPVLDSDGSFFLYSKLTVDKSRWQQGNVFSCSVIHEALHNHYTQKSLSLSPGK | binds

Next, values leading:

binding result | Binder
binds | Fc609 (other, Aglycosylated Fc fragment (E. coli, pPelBFLAG), assayed on spheroplasts; not shown: C-terminal FLAG tag from pPelBFLAG) DKTHTCPPCPAPELLGGPSVFLFPPKPKDTLMISRTPEVTCVVVDVSHEDPEVKFNWYVDGVEVHNAKTKPREEQYNSTYRVVSVLTVLHQDWLNGKEYKCKVSNKALPAPIEKTISRAKVQPREPQVYTLPPSRDELTKNQVSLTCLVKGFYPSDIAVEWVSNGQPENNYKTTPPVLDSDGSFFLYSKLTVDKSRWQQGNVFLCSVIHEALHDHYTQKSLSLSPGK
binds | Fc707 (other, Aglycosylated Fc fragment (E. coli, pPelBFLAG), assayed on spheroplasts; not shown: C-terminal FLAG tag from pPelBFLAG) DKTHTCPPCPAPELLGGPSVFLFPPKPKDTLMISRTPEVTCVVVDVSHEDPEVKFNWYVDGVEVHNAKTKPREEQYNSTYRVVSVLTVLHQDWLNGKEYKCKVSNKAWPEPYEKTISKAKGQPREPQVYTLPPSRDELTKNQVSLTCLVKGFYPSDIAVEWVSNGQPENNYKTTPPVLDSDGSFFLYSKLTVDKSRWQQGNVFSCSVIHEALHNHYTQKSLSLSPGK
binds | Fc708 (other, Aglycosylated Fc fragment (E. coli, pPelBFLAG), assayed on spheroplasts; not shown: C-terminal FLAG tag from pPelBFLAG) DKTHTCPPCPAPELLGGPSVFLFPPKPKDTLMISRTPEVTCVVVDVSHEDPEVKFNWYVDGVEVHNAKTKPREEQYNSTYRVVSVLTVLHQDWLNGKEYKCKVSNKAWPASYEKTISKAKGQPREPQVYTLPPSRDELTKNQVSLTCLVKGFYPSDIAVEWVSNGQPENNYKTTPPVLDSDGSFFLYSKLTVDKSRWQQGNVFSCSVIHEALHNHYTQKSLSLSPGK
binds | Fc610 (other, Aglycosylated Fc fragment (E. coli, pPelBFLAG), assayed on spheroplasts; not shown: C-terminal FLAG tag from pPelBFLAG) DKTHTCPPCPAPELLGGPSVLLFPPKPKDTLMISRTPEVTCVVVDVSHEDPEVKFNWYVDGVEVHNAKTKPREEQYNSTYRVVSVLTVLHQDWLNGKEYKCKVSNKALPAPIEKTISKAKVQPREPQVYTLPPSRDELTKNQVSLTCLVKGFYPSDIAVEWVSNGQPENNYKTTPPVLDSDGSFFLYSKLTVDKSRWQQGNVFSCSVIHEALHNHYTQKSLSLSPGK
binds | Fc702 (other, Aglycosylated Fc fragment (E. coli, pPelBFLAG), assayed on spheroplasts; not shown: C-terminal FLAG tag from pPelBFLAG) DKTHTCPPCPAPELLGGPSVFLFPPKPKDTLMISRTPEVTCVVVDVSHEDPEVKFNWYMDGVEVHNAKTKPREEQYNSTYRVVSVLTVLHQDWLNGKEYKCKVSNKAWPEEYEKTISKAKGQPREPQVYTLPPSRDELTKNQVSLTCLVKGFYPSDIAVEWVSNGQPENNYKTTPPVLDSDGSFFLYSKLTVDKSRWQQGNVFSCSVIHEALHNHYTQKSLSLSPGK
binds | Fc612 (other, Aglycosylated Fc fragment (E. coli, pPelBFLAG), assayed on spheroplasts; not shown: C-terminal FLAG tag from pPelBFLAG) DKTHTCPPCPAPELLGGPSVFLFPPKPKDTLMISRTPEVTCVVVDVSHEDPEVKFDWYVDGVEVHNAKTKPREEQYNSTYRVVSVLTVLHQDWLNGKEYKCKVSNKALPAPIEKTISKAKVQPREPQVYTLPPSRDELTKNQVSLTCLVKGFYPSDIAVEWVSNGQPENNYKTTPPVLDSDGSFFLYSKLTVDKSRWQQGNVFSCSVIHEALHNHYTQKSLSLSPGK
binds | Fc601 (other, Aglycosylated Fc fragment (E. coli, pPelBFLAG), assayed on spheroplasts; also called IgG1-Fc601; not shown: C-terminal FLAG tag from pPelBFLAG) DKTHTCPPCPAPELLGGPSVFLFPPKPKDTLMISRTPEVTCVVVDVSHEDPEVKFNWYVDGVEVHNAKTKPREEQYNSTYRVVSVLTVLHQDWLNGKEYKCKVSNKALPAPIEKTISRAKVQPREPQVYTLPPSRDELTKNQVSLTCLVKGFYPSDIAVEWVSNGQPENNYKTTPPVLDSDGSFFLYSKLTVDKSRWQQGNVFSCSVIHEALHNHYTQKSLSLSPGK
binds | Fc618 (other, Aglycosylated Fc fragment (E. coli, pPelBFLAG), assayed on spheroplasts; not shown: C-terminal FLAG tag from pPelBFLAG) DKTHTCPPCPAPELLGGPSVFLFPPKPKDTLMISRTPEVTCVVVDVSHEDPEVKFNWYVDGVEVHNAKTKPREEQYNSTYRVVSVLTVLHQDWLNGKEYKCKVSNKALPAPIEKTISKAKGQPREPQVYTLPPSRDELTKNQVSLTCLVKGFYPSDIAVEWVSNGQPENNYKTTPPVLDSDGSFFLYSKLTVDKSRWQQGNVFSCSVIHEALHSHYTQKSLSLSPGK
binds | Fc614 (other, Aglycosylated Fc fragment (E. coli, pPelBFLAG), assayed on spheroplasts; not shown: C-terminal FLAG tag from pPelBFLAG) DKTHTCPPCPAPELLGGPSVFLFPPKPKDTLMISRTPEVTCVVVDVSHEDPEVKFNWYVDGVEVHDAKTKPREEQYNSTYRVVSVLTVLHQDWLNGKEYKCKVSNKALPAPIEKTISKAKVQPREPQVYTLPPSRDELTKNQVSLTCLVKGFYPSDIAVEWVSNGQPENNYKTTPPVLDSDGSFFLYSKLTVDKSRWQQGNVFSCSVIHEALHSHYTQKSLSLSPGK
binds | Fc613 (other, Aglycosylated Fc fragment (E. coli, pPelBFLAG), assayed on spheroplasts; not shown: C-terminal FLAG tag from pPelBFLAG) DKTHTCPPCPAPELLGGPSVFLFPPKPKDTLMISRTPEVTCVVVDVSHEDPEVKFNWYVDGVEVHNAKTKPREEQYNSTYRVVSVLTVLHQDWLNGKEYKCKVSNKALPAPIEKTISKAKVQPREPQVYTLPPSRDELTKNQVSLTCLAKGFYPSDIAVEWVSNGQPENNYKTTPPVLDSDGSFFLYSKLTVDKSRWQQGNVFSCSVIHEALHNHYTQKSLSLSPGK
binds | Fc617 (other, Aglycosylated Fc fragment (E. coli, pPelBFLAG), assayed on spheroplasts; not shown: C-terminal FLAG tag from pPelBFLAG) DKTHTCPPCPAPELLGGPSVFLFPPKPKDTLMISRTPEVTCVVVDVSHEDPEVKFNWYVDGVEVHNAKTKPREEQYNSTYRVVSVLTVLHQDWLNGKEYKCKVSNKALPAPIEKTISKAKVQPREPQMYTLPPSRDELTKNQVSLTCLVKGFYPSDIAVEWVSNGQPENNYKTTPPVLDSDGSFFLYSKLTVDKSRWQQGNVFSCSVIHEALHNHYTQKSLSLSPGK
